This note sets out measurements from publication PMC11440629 (Advanced Functional Materials, 2023).

The data set concerns the molecule itself. Put plainly: release from hydrogel.

B1: NT2RepCT (other)
chain: MSHTTPWTNPGLAENFMNSFMQGLSSMPGFTASQLDDMSTIAQSMVQSIQSLAAQGRTSPNKLQALNMAFASSMAEIAASEEGGGSLSTKTSSIASAMSNAFLQTTGVVNQPFINEITQLVSMFAQAGMNDVSAGNSGRGQGGYGQGSGGNAAAAAAAAAAAAAAAGQGGQGGYGRQSQGAGSAAAAAAAAAAAAAAGSGQGGYGGQGQGGYGQSGNSVTSGGYGYGTSAAAGAGVAAGSYAGAVNRLSSAEAASRVSSNIAAIASGGASALPSVISNIYSGVVASGVSSNEALIQALLELLSALVHVLSSASIGNVSSVGVDSTLNVVQDSVGQYVG
Consider B1, for which the binding result was “binds”.
